Experimental data from article PMC9616523 (2022).

How the values were obtained:
[1] = biological target: Avaren‐Fc expressed in wild‐type N. benthamiana (AvFc^WT) ( | human); experiment: SPR
[2] = biological target: Avaren‐Fc expressed in glycoengineered ΔXylT/ΔFucT N. benthamiana (AvFc^ΔXF) ( | human); experiment: SPR

B1: mouse FcγRIV (receptor)
chain: GLQKAVVNLDPKWVRVLEEDSVTLRCQGTFSPEDNSIKWFHNESLIPHQDANYVIQSARVKDSGMYRCQTALSTISDPVQLEVHMGWLLLQTTKWLFQEGDPIHLRCHSWQNRPVRKVTYLQNGKGKKYFHENSELLIPKATHNDSGSYFCRGLIGHNNKSSASFRISLGDPGSPSMFPPWHQ
With B1 the Kd [1] was 2530 nM and the Kd [2] was 457 nM.

B2: human FcγRI (receptor)
chain: QVDTTKAVITLQPPWVSVFQEETVTLHCEVLHLPGSSSTQWFLNGTATQTSTPSYRITSASVNDSGEYRCQRGLSGRSDPIQLEIHRGWLLLQVSSRVFTEGEPLALRCHAWKDKLVYNVLYYRNGKAFKFFHWNSNLTILKTNISHNGTYHCSGMGKHRYTSAGISVTVKELFPAPVLNASVTSPLLEGNLVTLSCETKLLLQRPGLQLYFSFYMGSKTLRGRNTSSEYQILTARREDSGLYWCEAATEDGNVLKRSPELELQVLGLQLPTPVWFH
Binder B2 has a Kd [1] of 7.78 nM and a Kd [2] of 4.04 nM.
